The supplement of paper PMC10567573

B1: NECAB1 (parent)
chain: NLDTEELCEYFSQHLGEYENVLAA
B2: KRT18 (parent)
chain: KSQDLAKIMADIRAQYDELARKNR

Variants of: B1
Experiment: protein stability index of a GFP-peptide fusion (GPS, HEK-293T) (PSI 1-6); higher = more stable
Details: c terminus: a fixed tail appended
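Further: lentivirally expressed fusions sorted by FACS into six bins by GFP to DsRed ratio, PSI derived from sequencing read proportions per bin multiplied by bin number.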

Row | Variant | protein stability index
1 | NLDTEELCEYFSQHLGIYENVLAA [E17I] | 2.84
2 | NLDTEELCEYFSQHLGNYENVLAA [E17N] | 2.14
3 | NLDTEELCEYFSQHLGLYENVLAA [E17L] | 2.62
4 | NLDTEELCEYFSQHLGRYENVLAA [E17R] | 2.76
5 | NLDTEELCENFSQHLGEYENVLAA [Y10N] | 4.58
6 | NLDTEELCELFSQHLGEYENVLAA [Y10L] | 4.08
7 | NLDTEELCEPFSQHLGEYENVLAA [Y10P] | 4.47
8 | NLDTEELCEYFSQHLGEYENVLFA [A23F] | 2.28
9 | NLDTEELCEYFSQHLGEYENVLQA [A23Q] | 3.68
10 | NLDTEELCEYFSQHLGEYENVLEA [A23E] | 4.5
11 | NLDTEELCEYFSQHLGEYENVLVA [A23V] | 2.21
12 | NRDTEELCEYFSQHLGEYENVLAA [L2R] | 4
13 | NHDTEELCEYFSQHLGEYENVLAA [L2H] | 3.52
14 | NLDTEELCEYFSQHLGEYENVLAP [A24P] | 3.43
15 | NLDTEELCEYPSQHLGEYENVLAA [F11P] | 5.13
16 | NLDTEELCEYVSQHLGEYENVLAA [F11V] | 3.9
17 | NLDTEELCEYQSQHLGEYENVLAA [F11Q] | 4.44
18 | NLDTEELCEYESQHLGEYENVLAA [F11E] | 5.25
19 | NLDTEELCEYYSQHLGEYENVLAA [F11Y] | 4.33
20 | NLDTEEGCEYFSQHLGEYENVLAA [L7G] | 4.79
21 | NLDTEENCEYFSQHLGEYENVLAA [L7N] | 4.63
22 | NLDTEEDCEYFSQHLGEYENVLAA [L7D] | 4.92
23 | NLDTEELCEYFSQHLGEYENQLAA [V21Q] | 3.52
24 | NLDTEELCEYFSQHLGEYENELAA [V21E] | 4.2

Row | Variant | protein stability index
25 | NLDTEELCEYFSQHLGEYENILAA [V21I] | 1.83
26 | NLDTEFLCEYFSQHLGEYENVLAA [E6F] | 2.41
27 | NLDTESLCEYFSQHLGEYENVLAA [E6S] | 1.92
28 | NLDTEKLCEYFSQHLGEYENVLAA [E6K] | 2.08
29 | NLDWEELCEYFSQHLGEYENVLAA [T4W] | 2.63
30 | NLDREELCEYFSQHLGEYENVLAA [T4R] | 3.05
31 | NLDYEELCEYFSQHLGEYENVLAA [T4Y] | 2.97
32 | NLDCEELCEYFSQHLGEYENVLAA [T4C] | 2.64
33 | NLDTEELVEYFSQHLGEYENVLAA [C8V] | 3.04
34 | NLDTEELDEYFSQHLGEYENVLAA [C8D] | 4.39
35 | NLDTEELNEYFSQHLGEYENVLAA [C8N] | 4.18
36 | NLDTEELQEYFSQHLGEYENVLAA [C8Q] | 3.52
37 | NLDTEELWEYFSQHLGEYENVLAA [C8W] | 3.28
38 | NLDTEELCEYFDQHLGEYENVLAA [S12D] | 4
39 | NLDTEELCEYFSQHLKEYENVLAA [G16K] | 1.81
40 | NLDTEELCEYFSQHLREYENVLAA [G16R] | 1.78
41 | NLDTEELCEYFSQHLCEYENVLAA [G16C] | 1.88
42 | NLDTEELCEYFSQHLYEYENVLAA [G16Y] | 1.58
43 | NLDTEELCEYFSNHLGEYENVLAA [Q13N] | 2.89
44 | NLDTEELCEYFSPHLGEYENVLAA [Q13P] | 3.71
45 | NLDTEELCEYFSTHLGEYENVLAA [Q13T] | 3.27
46 | NLDTEELCEYFSGHLGEYENVLAA [Q13G] | 3.3
47 | NLDTEELCEYFSKHLGEYENVLAA [Q13K] | 2.36
48 | NLDTEELCEYFSAHLGEYENVLAA [Q13A] | 2.5

Row | Variant | protein stability index
49 | NLPTEELCEYFSQHLGEYENVLAA [D3P] | 3.14
50 | NLFTEELCEYFSQHLGEYENVLAA [D3F] | 2.36
51 | NLWTEELCEYFSQHLGEYENVLAA [D3W] | 2.12
52 | NLDTEELCEYFSQHKGEYENVLAA [L15K] | 4.02
53 | NLDTEELCEYFSQHAGEYENVLAA [L15A] | 3.36
54 | NLDTEELCEYFSQHRGEYENVLAA [L15R] | 3.1
55 | SLDTEELCEYFSQHLGEYENVLAA [N1S] | 3.93
56 | TLDTEELCEYFSQHLGEYENVLAA [N1T] | 3.22
57 | NLDTEELCEYFSQHLGEYHNVLAA [E19H] | 1.97
58 | NLDTEELCEYFSQHLGEYNNVLAA [E19N] | 2.87
59 | NLDTEELCEYFSQHLGEYFNVLAA [E19F] | 1.97
60 | NLDTEELCEYFSQHLGEYVNVLAA [E19V] | 1.53
61 | NLDTEELCEYFSQHLGEYQNVLAA [E19Q] | 2.4
62 | NLDTEELCEYFSQHLGEYEVVLAA [N20V] | 4.33
63 | NLDTEELCEYFSQHLGEYEKVLAA [N20K] | 1.94
64 | NLDTEELCEYFSQHLGEYERVLAA [N20R] | 2.25
65 | NLDTEELCEYFSQHLGEYEWVLAA [N20W] | 2.03
66 | NLDTEELCMYFSQHLGEYENVLAA [E9M] | 1.9
67 | NLDTEELCNYFSQHLGEYENVLAA [E9N] | 2.21
68 | NLDTEELCEYFSQGLGEYENVLAA [H14G] | 3.81
69 | NLDTEELCEYFSQWLGEYENVLAA [H14W] | 1.84
70 | NLDTEELCEYFSQMLGEYENVLAA [H14M] | 2.98

Variants of: B2
Experiment: as above
Details: c terminus: a fixed tail appended

Row | Variant | protein stability index
71 | KSQDLAKIMADIRAQYDELARKWR [N23W] | 2.33
72 | KSQDLAKIMADIRAQYDELARKYR [N23Y] | 1.94
73 | KSQDLAKIMADIRAQYDELARKTR [N23T] | 2.88
74 | KSQDLAKIMADIRAQYDELARKVR [N23V] | 3.04
75 | KSQDLAKIMADIRAQYDELARKSR [N23S] | 3.29
76 | KSQDLAKIMADIRAQYDELARKNC [R24C] | 1.92
77 | KSQDLAKIMADIRAQYDELARKNE [R24E] | 3.17
78 | KSQDLAKIMADIRAQYDELARKNW [R24W] | 2.13
79 | KSQDLAKIMADIRAQYDELARKNT [R24T] | 3.13
80 | KSQDLAKIMADIRAQYDELARKNL [R24L] | 1.69
81 | KSQDLAKIMADIRAQYDELARKNY [R24Y] | 2.01
82 | KSQDLAKIMADIRAQYDELARKNG [R24G] | 3.57
83 | KSQDLAKIMADIRAQYDELARKNN [R24N] | 3.13
84 | KSQDLAKIMADIRAQYDELARKNF [R24F] | 2.79
85 | KSQDLAKIMADIRAQYDELARKNP [R24P] | 3.16
86 | KSQDLAKIMADIRAQYDELARKNA [R24A] | 3.33
87 | KSQDLAKIMADIRAQYDELARKNI [R24I] | 2.1
88 | KSQDLAKIMADIRAQYDELARKNQ [R24Q] | 2.95
89 | KSQDLAKIMADIRAQYDELARKNM [R24M] | 3.07
90 | KSQDLAKIMADIRAQYDELARKNK [R24K] | 3.46
91 | KSQDLAKIMADIRAQYDELARKNV [R24V] | 2.57
92 | KSQDLAKIMADIRAQYDELARKNH [R24H] | 2.81
93 | KSQDLAKIMADIRAQYDELARKNS [R24S] | 2.61
94 | KSQDLAKIMADIRAQYDELARKND [R24D] | 3.81
